Values quoted from earlier work, collected in article PMC7550652.

Molecular target: Calmodulin (Homo sapiens) (UniProt P0DP23)

Kd: 0.16 nM
Substance: ERα (from UniProt P03372)
